Experiment [1] concerns the target truncated E2 protein of CSFV C-strain with glutathione S-transferase tag (grE2) (classical swine fever virus, C-strain). Briefly: SPR.
Experiment [2] has the same target. In words: ELISA. For orientation: An ELISA detects its analyte on a solid surface through an enzyme-linked reagent.

In general, Kd refers to the equilibrium constant for the complex coming apart. Low values mean a tighter complex, high ones a looser complex. Broadly, the koff is a measure of how fast the partners let go of each other. A higher koff goes with fast dissociation. The kon is the rate constant with which the complex forms. A high value points to fast association.

B1: recombinant sdAbE2-2 (VHH)
VHH: DVQLVESGGGLVQAGGSLRLSCTASGFTFDDYAMAWFRQPPGKEREGVSCISSSGGSTWYADSVKGRFTVSRDNAKNTLYLQMNSLKPEDTAMYYCAADWGRLCVVRGPRNEYKYSGQGTQVTVSS
Consider B1, for which, in experiment [1], the dissociation constant Kd was 13.5 nM, the koff is 0.00859 s⁻¹ and the kon stood at 635000 M⁻¹ s⁻¹. The OD450nm value in experiment [2] came out at 0.743.

B2: recombinant sdAbE2-1 (VHH)
VHH: QVQLLESGGGLVQPGGSLRLSCAASGYSFIDKTMAWVRQAPGKGLEWVSAIRMHNGSTYYADSVKGRFTISRDNSKNTLYLQMNSLRAEDTAVYYCARLSRRIQAKDKAKLKYWGQGTLVTVSS
B2: in experiment [1], the Kd came out at 334 nM, the off-rate (koff) is 0.00791 s⁻¹ and the kon worked out at 23700 M⁻¹ s⁻¹. The same molecule displayed an OD450nm value in experiment [2] of 0.765.

The values above are taken from paper PMC7013354.
